From PMC12356879 (Nature Communications, 2025)

Legend:
[1] = biological target: post-translational lamin construct with a single N-terminal cysteine (pJS81) (human) (UniProt P02545); assay: SEC
optical tweezers = biological target: the molecule itself; assay: optical tweezers

Molecule | stoichiometry N [1] | mean rupture force (optical tweezers) [pN]
post-translational lamin construct with a single N-terminal cysteine (pJS81) (from UniProt P02545 31-311) (domain or fragment) | 2 | –
LMNA_(31-123) ribosome-bound nascent chain (domain or fragment) EKEDLQELNDRLAVYIDRVRSLETENAGLRLRITESEEVVSREVSGIKAAYEAELGDARKTLDSVAKERARLQLELSKVREEFKELKARNTKK | – | 7
LMNA_(31-311) ribosome-bound nascent chain (domain or fragment) EKEDLQELNDRLAVYIDRVRSLETENAGLRLRITESEEVVSREVSGIKAAYEAELGDARKTLDSVAKERARLQLELSKVREEFKELKARNTKKEGDLIAAQARLKDLEALLNSKEAALSTALSEKRTLEGELHDLRGQVAKLEAALGEAKKQLQDEMLRRVDAENRLQTMKEELDFQKNIYSEELRETKRRHETRLVEIDNGKQREFESRLADALQELRAQHEDQVEQYKKELEKTYSAKLDNARQSAERNSNLVGAAHEELQQSRIRIDSLSAQLSQLQK | – | 14
